As usually defined, the Kd is the free concentration of one partner at which half of the binding sites on the other are occupied at equilibrium, for simple one-to-one binding. As usually defined, the koff is the rate constant with which the complex falls apart. What is called kon is the second-order rate constant of association.

Experimental findings from patent US20110027290A1 (Eli Lilly, published 2011) are described below.

Residue numbers refer to the chain shown, from its start.

The target of assay [1] is T1, human IL-17 (human, UniProt Q16552 20-155, limits assumed).
T1 sequence: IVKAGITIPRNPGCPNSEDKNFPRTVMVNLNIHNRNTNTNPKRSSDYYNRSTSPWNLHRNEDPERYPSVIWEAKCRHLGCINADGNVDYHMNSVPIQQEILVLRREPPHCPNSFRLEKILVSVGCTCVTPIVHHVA
Nature of the assay: cell-based or functional assay.

The target of another assay is T2, human IL-17F (human, UniProt Q96PD4 31-163).
T2 sequence (looked up): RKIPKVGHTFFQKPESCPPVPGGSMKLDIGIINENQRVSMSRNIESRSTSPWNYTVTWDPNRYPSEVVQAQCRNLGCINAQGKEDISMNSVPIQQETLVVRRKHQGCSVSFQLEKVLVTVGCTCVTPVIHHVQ
Nature of the assay: ELISA, antigen coated on plate. In general terms: ELISA stands for enzyme-linked immunosorbent assay.

A further assay has as its target T3, human IL-22 (human, UniProt Q9GZX6 34-179).
T3 construct: Negative control antigen
T3 sequence (looked up): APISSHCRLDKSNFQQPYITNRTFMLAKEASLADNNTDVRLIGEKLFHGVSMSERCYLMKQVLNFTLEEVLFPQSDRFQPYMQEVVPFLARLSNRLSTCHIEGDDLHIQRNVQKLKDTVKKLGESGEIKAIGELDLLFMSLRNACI
Nature of the assay: ELISA, antigen coated on plate.

The target of a further assay is T4, mouse IL-17 (murine, UniProt Q62386 26-158, limits assumed).
T4 construct: also called murine IL-17
T4 sequence: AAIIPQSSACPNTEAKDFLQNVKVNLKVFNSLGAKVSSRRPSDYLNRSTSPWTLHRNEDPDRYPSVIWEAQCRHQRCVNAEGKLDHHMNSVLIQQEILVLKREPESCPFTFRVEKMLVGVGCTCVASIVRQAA
Kind of assay: ELISA, antigen coated on plate.

The next assay addresses T5, human IL-17B (human, UniProt Q9UHF5 21-180).
T5 sequence (looked up): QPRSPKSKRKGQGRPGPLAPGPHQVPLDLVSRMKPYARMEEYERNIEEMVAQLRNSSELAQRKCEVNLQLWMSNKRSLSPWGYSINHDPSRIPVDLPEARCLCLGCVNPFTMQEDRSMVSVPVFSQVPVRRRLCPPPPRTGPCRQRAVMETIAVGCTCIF
Nature of the assay: ELISA, antigen coated on plate.

Another assay addresses T6, human IL-17C (human, UniProt Q9P0M4 19-197).
T6 sequence (looked up): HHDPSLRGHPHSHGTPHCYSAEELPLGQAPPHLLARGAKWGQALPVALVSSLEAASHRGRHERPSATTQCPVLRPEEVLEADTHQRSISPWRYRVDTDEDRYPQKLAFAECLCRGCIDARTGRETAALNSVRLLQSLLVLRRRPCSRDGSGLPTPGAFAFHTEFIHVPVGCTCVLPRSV
Nature of the assay: ELISA, antigen coated on plate.

A further assay concerns the target T7, human IL-17D (human, UniProt Q8TAD2 18-202, limits assumed).
T7 sequence (looked up): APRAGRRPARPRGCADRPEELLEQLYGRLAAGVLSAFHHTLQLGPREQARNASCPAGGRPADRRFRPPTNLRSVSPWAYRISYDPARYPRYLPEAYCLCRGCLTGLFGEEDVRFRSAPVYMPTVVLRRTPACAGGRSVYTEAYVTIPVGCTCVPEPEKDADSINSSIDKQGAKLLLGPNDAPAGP
Kind of assay: ELISA, antigen coated on plate.

A further assay deals with T8, human IL-17E (human, UniProt Q9H293 33-177).
T8 sequence (looked up): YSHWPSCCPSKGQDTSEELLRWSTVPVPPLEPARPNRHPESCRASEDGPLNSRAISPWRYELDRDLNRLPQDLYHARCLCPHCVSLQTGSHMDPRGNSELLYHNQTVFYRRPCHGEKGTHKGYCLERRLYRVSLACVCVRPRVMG
Kind of assay: ELISA, antigen coated on plate.

The target of assay [2] is T1, human IL-17. Kind of assay: SPR (BIACORE 2000), mAb captured on Protein A, IL-17 injected, 25 C, 1:1 with mass transfer model. (In general: SPR reads the build-up and loss of mass on a sensor chip optically.)
Description: (§1) A BIACORE® 2000 instrument is used to measure antigen-antibody binding kinetics and affinity. The instrument utilizes the optical properties of surface plasmon resonance to detect alteration in protein concentration of interacting molecules within a dextran biosensor matrix. Except as noted, all reagents and materials are purchased from BIACORE® AB. All measurements are performed at 25° C. Samples are resuspended in HBS-EP buffer to a final concentration of 2 μg/ml (150 mM sodium chloride, 3 mM EDTA, 0.005% (w/v) surfactant P-20, and 10 mM HEPES, pH 7.4). Protein A is immobilized on flow cells 1 to 4 of a CM4 sensor chip at a level of 500 response units using an amine coupling kit.
(§2) Binding is evaluated using multiple analytical cycles. […] Association and dissociation rates for each cycle are evaluated using a “1:1 with mass transfer” binding model in the BIAevaluation software.
The target of assay [3] is New Zealand white rabbit IL-17 (rabbit). Nature of the assay: SPR (BIACORE 2000), mAb captured on Protein A; biphasic, heterogeneous ligand model, first of two affinities.
New Zealand white rabbit IL-17 (rabbit), sequence (chain, as listed by the source limits assumed, form in doubt): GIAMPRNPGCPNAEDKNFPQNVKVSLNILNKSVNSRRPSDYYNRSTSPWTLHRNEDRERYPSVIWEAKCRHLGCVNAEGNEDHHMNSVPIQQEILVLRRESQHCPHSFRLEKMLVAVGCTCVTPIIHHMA
The next assay has as its target T9, cynomolgus monkey IL-17 (cynomolgus monkey, UniProt Q16552 24-155 (human entry), limits assumed).
T9 construct: Not commercially available; cloned and expressed; also called CYNO IL-17
T9 chain: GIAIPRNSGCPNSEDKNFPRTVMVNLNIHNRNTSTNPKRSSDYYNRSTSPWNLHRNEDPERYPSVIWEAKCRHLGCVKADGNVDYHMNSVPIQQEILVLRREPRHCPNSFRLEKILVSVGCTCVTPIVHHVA
Nature of the assay: SPR (BIACORE 2000), mAb captured on Protein A, IL-17 injected, 25 C, 1:1 with mass transfer model.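 Note: CM4 chip with immobilized Protein A, HBS-EP running buffer pH 7.4, IL-17 titrated downward from 10 nM in twofold steps, 20 min dissociation phase.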

In assay [4] the target is New Zealand white rabbit IL-17 (rabbit). Kind of assay: SPR (BIACORE 2000), mAb captured on Protein A; biphasic, heterogeneous ligand model, second of two affinities.

Description for cynomolgus monkey IL-17: as §1, §2
Description for human IL-17B: (§3) In an exemplary assay, ELISA plate wells (Nunc Immuno Maxisorp) are coated with 100 μl (0.5 ng/ml in 1× coating buffer (BioFx)) of IL-17 family member proteins (R&D Systems) sealed and incubated overnight at 4° C. The solution in the well is removed by flicking and blocking buffer (200 μl 1.5% BSA in PBS) is added. The plates are incubated on a rotating shaker for 30 minutes at room temperature. Then 100 μl of an antibody to be tested is added per well at varying concentrations (e.g., 2, 0.4, 0.08, 0.016, 0.0032 and 0 μg/ml). The plates are again incubated overnight (4° C.) followed by warming on a rotating shaker (60 min room temp). Each plate-well is then washed five times with buffer (1× Ish buffer, BioFX). After washing, an appropriate commercially available HRP-conjugated secondary antibody (1:2000 in PBS with 1.5% BSA) is added (100 μl/well). Plates are re-incubated on a rotating shaker (60 min. room temp.) followed by buffer washing (5×) as described above. The colorimetric signal is developed by adding TMB (100 μl/well) until saturation (approx 3-5 min.) then further development is ended by adding stop solution (100 μl/well, BioFX). The color signal is measured at 450 nm absorbance using any appropriate ELISA plate reader. The degree of binding is proportional to color signal production.
Description for human IL-17D: as §3
Description for human IL-17E: as §3
Description for human IL-17F: as §3
Description for human IL-22: as §3
Description for mouse IL-17: as §3

In the assay with human IL-17 [1], IgG4 negative control (antibody) gave an AVG GROα, pg/ml at 2.56 pM antibody (60 ng/ml IL-17, HT-29 cells) of 1240 pg/ml; an AVG GROα, pg/ml at 12.8 pM antibody (60 ng/ml IL-17, HT-29 cells) of 1350 pg/ml; an AVG GROα, pg/ml at 64.0 pM antibody (60 ng/ml IL-17, HT-29 cells) of 1380 pg/ml; an AVG GROα, pg/ml at 320.0 pM antibody (60 ng/ml IL-17, HT-29 cells) of 1390 pg/ml. Moreover, in the assay with human IL-17 [1], the AVG GROα, pg/ml at 1,600.0 pM antibody (60 ng/ml IL-17, HT-29 cells) was determined as 1370 pg/ml; the AVG GROα, pg/ml at 8,000.0 pM antibody (60 ng/ml IL-17, HT-29 cells) worked out at 1420 pg/ml; the AVG GROα, pg/ml at 40,000.0 pM antibody (60 ng/ml IL-17, HT-29 cells) stood at 1300 pg/ml.

B1: Fab 121 (Fab, V domains shown)
VH: QVQLVQSGAEVKKPGSSVKVSCKASGYSFTDYHISWVRQAPGQGLEWMGVINPEYGTTDYNQRFKGRVTITADESTSTAYMELSSLRSEDTAVYYCARYDYFTGTGAYWGQGTLVTVSS
VL: DIVMTQTPLSLSVTPGQPASISCRSSQSLKHSRGNTFLHWYLQKPGQSPQLLIYKVSNRFIGVPDRFSGSGSGTDFTLKISRVEAEDVGVYYCSQSTHYPFTFGQGTKLEIK
notes: constant domains are not specified
For B1, the binding result in the assay with human IL-17F, with human IL-22, in the assay with mouse IL-17, in the assay with human IL-17B, with human IL-17C and with human IL-17D was “no binding” throughout. For the same molecule, the binding result in the assay with human IL-17E was “no binding”.

B2: mAb 131 (full-length, IgG4 Fc region) (antibody, V domains shown)
VH: B1 VH with S35H, A107V
VL: B1 VL with Q27K, K30V, F37Y
In the assay with human IL-17 [2], B2 registered a dissociation constant Kd of 2.9 pM, a koff of 1.6e-05 s⁻¹ and a kon of 5.4e+06 M⁻¹ s⁻¹.

B3: Fab 126 (Fab, V domains shown)
VH: B1 VH with S35H, E54M, A107V
VL: B1 VL with Q27R, K30V, F37Y, Y99L
notes: as for B1
With B3, the binding result with human IL-22, in the assay with mouse IL-17, with human IL-17B, with human IL-17C, with human IL-17D and with human IL-17E was “no binding” throughout.

B4: mAb 121 (full-length, IgG4 Fc region) (antibody, V domains shown)
VH: B1 VH
VL: B1 VL
notes: Full-length mAb with an IgG4 Fc region
In the case of B4, the “decrease of the mean mouse KC level after human IL-17 injection in mice, 20 µg/mouse, compared to a control antibody” value in the assay with human IL-17 [1] is around 3 fold. Moreover, the dissociation constant Kd in [3] came to 510 pM; in the assay with human IL-17 [2] it was 1.6 pM; with cynomolgus monkey IL-17, 1.1 pM; in assay [4], 1500 pM. In addition, the koff stood at 0.0004 s⁻¹ in [3], 1.5e-05 s⁻¹ with human IL-17 [2], 7e-06 s⁻¹ in the assay with cynomolgus monkey IL-17 and 0.021 s⁻¹ in assay [4]. Besides, the kon in assay [3] is 800000 M⁻¹ s⁻¹; with human IL-17 [2], 1e+07 M⁻¹ s⁻¹; with cynomolgus monkey IL-17, 7.8e+06 M⁻¹ s⁻¹; in [4], 1.7e+07 M⁻¹ s⁻¹.

B5: mAb 126 (full-length, IgG4 Fc region) (antibody, V domains shown)
VH: B1 VH with S35H, E54M, A107V
VL: B1 VL with Q27R, K30V, F37Y, Y99L
notes: as for B4
As for B5, the “IC50, IL-17-induced GROα secretion from HT-29 cells” value with human IL-17 [1] is around 560 pM. The same molecule gave a Kd in the assay with cynomolgus monkey IL-17 of 0.8 pM.

B6: mAb 118 (full-length, IgG4 Fc region) (antibody, V domains shown)
VH: B1 VH with E54M, F102Y, A107V
VL: B1 VL with K30V
As to B6, in the assay with human IL-17 [2], the affinity, expressed as Kd, was 3.9 pM; the koff was 2e-05 s⁻¹; the kon turned out to be 5e+06 M⁻¹ s⁻¹.

B7: mAb 104 (full-length, IgG4 Fc region) (antibody, V domains shown)
VH: B1 VH with S35H
VL: B1 VL with Q27K, K30V, N58T, I61S
notes: also called full-length mAb 104
Turning to B7, the Kd in [3] came to 1900 pM; in the assay with human IL-17 [2], 1.7 pM; with cynomolgus monkey IL-17, 0.5 pM; in [4], 20000 pM. Also, the koff in [3] was determined as 0.00018 s⁻¹; with human IL-17 [2] it was 1.1e-05 s⁻¹; with cynomolgus monkey IL-17, 5e-06 s⁻¹; in [4], 0.07 s⁻¹. The kon is 100000 M⁻¹ s⁻¹ in assay [3], 7.7e+06 M⁻¹ s⁻¹ in the assay with human IL-17 [2], 9.4e+06 M⁻¹ s⁻¹ in the assay with cynomolgus monkey IL-17 and 4e+06 M⁻¹ s⁻¹ in assay [4].

B8: mAb 103 (full-length, IgG4 Fc region) (antibody, V domains shown)
VH: B1 VH with S35H
VL: B1 VL with K30R, F37Y, R59I, I61S
notes: also called full-length mAb 103
Take B8: the Kd in assay [3] came to 2000 pM; with human IL-17 [2] it was 1.4 pM; with cynomolgus monkey IL-17, 1.3 pM; in assay [4], 18100 pM. The koff in assay [3] was 0.00036 s⁻¹; with human IL-17 [2] it was 1.5e-05 s⁻¹; with cynomolgus monkey IL-17, 1.1e-05 s⁻¹; in assay [4], 0.192 s⁻¹. Besides, the kon in [3] was 180000 M⁻¹ s⁻¹; in the assay with human IL-17 [2], 1.1e+07 M⁻¹ s⁻¹; in the assay with cynomolgus monkey IL-17 it was 8.8e+06 M⁻¹ s⁻¹; in [4], 1.06e+07 M⁻¹ s⁻¹.
